We go through 1 substance from patent publication US20100015130A1.

Experiment [1] deals with GSK3β as used in the surface plasmon resonance (SPR) binding assays (Homo sapiens (Human)) (UniProt P49841). Description: SPR, stoichiometry inferred from the response. In general terms: SPR reads the build-up and loss of mass on a sensor chip optically.
Experiment [2] shares this target. The experiment in a line: SPR, peptide at 25 µM on GSK3β.

Sequence of GSK3β as used in the surface plasmon resonance (SPR) binding assays (Homo sapiens (Human)) (P49841 whole entry, form in doubt): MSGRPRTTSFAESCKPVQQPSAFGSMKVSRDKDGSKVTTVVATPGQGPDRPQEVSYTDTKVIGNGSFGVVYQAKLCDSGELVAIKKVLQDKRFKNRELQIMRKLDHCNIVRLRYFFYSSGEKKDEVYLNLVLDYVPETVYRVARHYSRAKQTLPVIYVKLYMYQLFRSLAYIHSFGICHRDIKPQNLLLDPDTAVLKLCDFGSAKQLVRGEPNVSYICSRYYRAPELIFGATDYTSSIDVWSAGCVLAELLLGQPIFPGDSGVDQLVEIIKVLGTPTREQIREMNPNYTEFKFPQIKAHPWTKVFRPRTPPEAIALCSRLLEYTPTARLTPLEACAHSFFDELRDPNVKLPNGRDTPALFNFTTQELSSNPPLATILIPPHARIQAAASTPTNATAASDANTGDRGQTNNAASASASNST

In the case of “L803-MTS (commercial GSK3β peptide inhibitor, Calbiochem)”, the peptide-protein ratio (peptide:protein) in experiment [1] stood at 2. For the same substance, in experiment [2], the percent theoretical maximal response came out at 259%.
